From the supplement of paper PMC9233669
This sample holds only a part of the variants without activity.

Experiments:
biotinyl-Trp-oxazolone = experiment: self-aminoacylation, catalytic enhancement (BWO) (fold over background); higher = more active; k-Seq, kA / k0A0; sequences stand for … in GGGAAUGGAUCCACAUCUACGAAUUC…UUCACUGCAGACUUGACGAAGCUG
Method in brief: (§1)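 Catalytic enhancement equals the median kA over the uncatalyzed rate, the latter read from the low-activity peak of a bimodal Gaussian fit. Values of kA came from fitting each sequence's fraction reacted to a pseudo-first-order model, with 1000 bootstraps. Reacted RNA was captured with streptavidin and quantified by triplicate qPCR and Illumina sequencing after 90 minutes at room temperature with 2–1250 μM biotinyl-aminoacyl-oxazolone and 0.43 μM mutagenized RNA pools bearing a 21-nt variable region.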

biotinyl-Ile-oxazolone = experiment: self-aminoacylation, catalytic enhancement (BIO) (fold over background); higher = more active; k-Seq, kA / k0A0; sequences stand for … in GGGAAUGGAUCCACAUCUACGAAUUC…UUCACUGCAGACUUGACGAAGCUG
Method in brief: as §1

biotinyl-Leu-oxazolone = experiment: self-aminoacylation, catalytic enhancement (BLO) (fold over background); higher = more active; k-Seq, kA / k0A0; sequences stand for … in GGGAAUGGAUCCACAUCUACGAAUUC…UUCACUGCAGACUUGACGAAGCUG
Method in brief: as §1

biotinyl-Phe-oxazolone = experiment: self-aminoacylation, catalytic enhancement (BFO) (fold over background); higher = more active; k-Seq, kA / k0A0; sequences stand for … in GGGAAUGGAUCCACAUCUACGAAUUC…UUCACUGCAGACUUGACGAAGCUG
Method in brief: as §1

biotinyl-Val-oxazolone = experiment: self-aminoacylation, catalytic enhancement (BVO) (fold over background); higher = more active; k-Seq, kA / k0A0; sequences stand for … in GGGAAUGGAUCCACAUCUACGAAUUC…UUCACUGCAGACUUGACGAAGCUG
Method in brief: as §1

biotinyl-Met-oxazolone = experiment: self-aminoacylation, catalytic enhancement (BMO) (fold over background); higher = more active; k-Seq, kA / k0A0; sequences stand for … in GGGAAUGGAUCCACAUCUACGAAUUC…UUCACUGCAGACUUGACGAAGCUG
Method in brief: as §1

Sequence | self-aminoacylation (biotinyl-Trp-oxazolone) | self-aminoacylation (biotinyl-Ile-oxazolone) | self-aminoacylation (biotinyl-Leu-oxazolone) | self-aminoacylation (biotinyl-Phe-oxazolone) | self-aminoacylation (biotinyl-Val-oxazolone) | self-aminoacylation (biotinyl-Met-oxazolone)
CUACUUCAAACAGUCGCUCUG [Fam1A.1 aminoacylation ribozyme variant] | 1.09 | 1.12 | 1.75 | 1.68 | 1.25 | 1.45
AAGAUUGCGAAUAGUCGCAAG [Fam3.1 aminoacylation ribozyme variant] | 2.46 | 1.47 | 1.33 | 1.72 | 1.71 | 1.17
GUUACCCUGGUCAUGGAGUGA [Fam2.1 aminoacylation ribozyme variant] | 7.15 | 3.51 | 5.89 | 36.2 | 3.36 | 4.85
AAGUUUCCUAAAAGUCGCAAG [Fam3.1 aminoacylation ribozyme variant] | 1.71 | 1.7 | 2.06 | 2.23 | 1.57 | 1.64
CCACCCUUCGAGCAAUCGGUC [Fam1B.1 aminoacylation ribozyme variant] | 2.58 | 1.49 | 1.34 | 0.944 | 2.06 | 1.94
AUUCACCUCGGUCAUCGGGUA [Fam2.2 aminoacylation ribozyme variant] | 3.95 | 2.96 | 2.87 | 17 | 3.25 | 3.24
CUCCUUCAACCAAUCGGUCUG [Fam1A.1 aminoacylation ribozyme variant] | 19.8 | 1.11 | 1.33 | 29.5 | 1.16 | 1.1
AAGUUUGCUAAUAGGCUCAAG [Fam3.1 aminoacylation ribozyme variant] | 0.535 | 0.664 | 0.715 | 0.973 | 0.774 | 0.493
AUUCACCUAGGUCAUCGGCUA [Fam2.2 aminoacylation ribozyme variant] | 2.62 | 2.67 | 2.98 | 11.2 | 2.62 | 2.57
UCACACUUGAAGCAAUCGGUC [Fam1B.1 aminoacylation ribozyme variant] | 0.486 | 0.744 | 0.751 | 0.541 | 0.774 | 0.762
CUACUUCAAACAAUCGGAGUG [Fam1A.1 aminoacylation ribozyme variant] | 3.77 | 3.06 | 4.96 | 6.37 | 2.52 | 3.25
CUACUUCAAACAUUCGGUCAG [Fam1A.1 aminoacylation ribozyme variant] | 0.688 | 0.901 | 0.861 | 0.674 | 0.992 | 0.886
GUUUACCUAGGUCAUCGGGUG [Fam2.2 aminoacylation ribozyme variant] | 23.9 | 16.2 | 39.7 | 201 | 14.1 | 29
GUUACCCUGGUCAUCGAGUGA [Fam2.1 aminoacylation ribozyme variant] | 101 | 35.2 | 100 | 747 | 38.3 | 99
AUUCACCUAGGGCAUCGGGUA [Fam2.2 aminoacylation ribozyme variant] | 3.3 | 2.89 | 2.34 | 2.02 | 3.46 | 3.25
AUUACCCUAGUCAUCGAGUCA [Fam2.1 aminoacylation ribozyme variant] | 0.546 | 0.724 | 0.674 | 0.47 | 0.893 | 0.631
CCACACUUCAAUCAGUCGGUC [Fam1B.1 aminoacylation ribozyme variant] | 0.687 | 0.963 | 0.723 | 0.869 | 0.796 | 0.815
AUGACCCUGGUCAGCGAGUGA [Fam2.1 aminoacylation ribozyme variant] | 6.08 | 3.46 | 5.66 | 24.2 | 2.94 | 4.85
AUUACCCUCGUUAUCGAGUGA [Fam2.1 aminoacylation ribozyme variant] | 17 | 5.66 | 13.9 | 91.9 | 5.63 | 13.8
CGUCACCUAGGUCAUCGGGUG [Fam2.2 aminoacylation ribozyme variant] | 6 | 3.51 | 4.11 | 28.9 | 5.16 | 3.71
CCAGUUCAAACAAUCGGUCUG [Fam1A.1 aminoacylation ribozyme variant] | 10.7 | 1.41 | 1.5 | 14.2 | 1.39 | 1.34
AAGUUUGCUAAAAGUCGCAAU [Fam3.1 aminoacylation ribozyme variant] | 1.69 | 1.24 | 0.929 | 1.15 | 1.17 | 1.37

Sequence | self-aminoacylation (biotinyl-Trp-oxazolone) | self-aminoacylation (biotinyl-Ile-oxazolone) | self-aminoacylation (biotinyl-Leu-oxazolone) | self-aminoacylation (biotinyl-Phe-oxazolone) | self-aminoacylation (biotinyl-Val-oxazolone) | self-aminoacylation (biotinyl-Met-oxazolone)
AUUACACUGGUCAUCGACUGA [Fam2.1 aminoacylation ribozyme variant] | 0.546 | 1 | 0.807 | 1.11 | 0.965 | 0.596
AUUCAACUAGGUCAUAGGGUG [Fam2.2 aminoacylation ribozyme variant] | 1.47 | 1.49 | 2.58 | 9.13 | 1.28 | 2
AUUACCCAGCUCAUCGAGUGA [Fam2.1 aminoacylation ribozyme variant] | 1.32 | 1.47 | 1.52 | 1.01 | 1.56 | 1.54
ACGUUUGCUAAUAGUGGCAAG [Fam3.1 aminoacylation ribozyme variant] | 0.59 | 0.853 | 0.804 | 0.738 | 0.741 | 0.75
AUUCAGCCAGGUCAUCGGGUG [Fam2.2 aminoacylation ribozyme variant] | 9.91 | 5.25 | 10.7 | 59.7 | 5.4 | 8.99
AUUCACCUAGAUCAUCGCGUG [Fam2.2 aminoacylation ribozyme variant] | 5.99 | 3.85 | 8.58 | 48.1 | 3.69 | 5.82
GUUCACCUGGGUCAUCGGGUG [Fam2.2 aminoacylation ribozyme variant] | 8.32 | 4.47 | 5.35 | 39.4 | 5.58 | 5.48
AAUUUUGAUAAUAGUCGCAAG [Fam3.1 aminoacylation ribozyme variant] | 1.37 | 1.7 | 1.64 | 2.09 | 1.39 | 1.66
GAUACCCUGGUCAUCGAGUGA [Fam2.1 aminoacylation ribozyme variant] | 10.5 | 4.92 | 7.96 | 31.6 | 5.43 | 8.5
AUUUACCUAGGUCAGCGGGUG [Fam2.2 aminoacylation ribozyme variant] | 3.98 | 2.49 | 4.23 | 24.5 | 3.16 | 4.01
AUUAACCGAGGUCAUCGGGUG [Fam2.2 aminoacylation ribozyme variant] | 7.45 | 4.6 | 7.86 | 48.9 | 5.32 | 7.9
AUUCACCUAGGUUGUCGGGUG [Fam2.2 aminoacylation ribozyme variant] | 4.65 | 3.53 | 5.86 | 27.3 | 3.2 | 4.89
AUUCACCUGGGUCAUCAGGUG [Fam2.2 aminoacylation ribozyme variant] | 1.36 | 1.52 | 1.67 | 6.12 | 1.92 | 1.48
AUACACCUAGGGCAUCGGGUG [Fam2.2 aminoacylation ribozyme variant] | 4.14 | 2.99 | 3.71 | 17.1 | 2.43 | 2.83
AUACUUCAAACAAUCGUUCUG [Fam1A.1 aminoacylation ribozyme variant] | 0.897 | 0.709 | 0.706 | 1.23 | 0.745 | 0.81
AUUCACCUUGGUCGUCGGGUG [Fam2.2 aminoacylation ribozyme variant] | 2.01 | 1.9 | 2.18 | 11.3 | 1.81 | 1.86
CUACUUCAAAGAAUCCGUCUG [Fam1A.1 aminoacylation ribozyme variant] | 0.738 | 1.06 | 1.07 | 0.744 | 0.915 | 0.942
AAGUUGGCUCAUAGUCGCAAG [Fam3.1 aminoacylation ribozyme variant] | 2.44 | 1.8 | 1.99 | 2.43 | 1.88 | 1.71
AUUCAGCUAGGGCAUCGGGUG [Fam2.2 aminoacylation ribozyme variant] | 6.75 | 4.72 | 7.92 | 64.3 | 4.65 | 6.69
CUACCUCAAACAAGCGGUCUG [Fam1A.1 aminoacylation ribozyme variant] | 1.11 | 1.25 | 0.828 | 5.07 | 0.97 | 1.57
CUACUUCAAACAAUCGGUGUA [Fam1A.1 aminoacylation ribozyme variant] | 0.989 | 0.983 | 1.12 | 1.33 | 0.946 | 1.05
